According to patent US20200376034A1 (DRAGONFLY THERAPEUTICS, published 2020):

Tests used:
[1] = biological target: T1, human CD33 extracellular domain (human, UniProt P20138 18-259); assay: SPR, Fab captured, 37 C
T1 construct: also called human CD33 ECD; hCD33
Method: (§1) Kinetics and affinity of a series of Fab fragments of anti-CD33 antibodies with different CD33 variants (human CD33 ECD, cyno CD33 ECD, V-domain of human CD33, C-domain or human CD33 and selected CD33 SNPs) were assessed by surface plasmon resonance using Biacore 8K instrument (GE Healthcare). Anti-Fab antibody was immobilized on a CMS chip using standard amine coupling chemistry. CD33 FABs were captured on the anti-Fab chip at a density of ˜100 RU. Solutions containing different concentrations of soluble monomeric CD33 or its domains were injected over the captured FABs and control surfaces at 30 μl/min at 37° C. Surfaces were regenerated between cycles by quick injection of 10 mM glycine, pH 1.8. To obtain kinetic rate constants double-referenced data were fit to a 1:1 interaction model using Biacore 8K Evaluation software (GE Healthcare). The equilibrium binding constant KD was determined by the ratio of binding rate constants kd/kₐ.

[2] = biological target: T1, human CD33 extracellular domain; assay: SPR, Fab captured, 37 C; remark: listed apart in the source
Method: as §1
(§2) Affinity of 29 Fab fragments binding to human and cyno CD33 ECD were assayed by Biacore analysis.

[3] = biological target: T1, human CD33 extracellular domain; assay: SPR, Fab captured, 37 C; remark: listed apart in the source
Method: as §1, §2

[4] = biological target: T1, human CD33 extracellular domain; assay: SPR, Fab captured, 37 C; remark: listed apart in the source
Method: as §1, §2

[5] = biological target: T2, deglycosylated V domain of human CD33 (human, UniProt P20138 18-139, limits assumed, deglycosylated by PNGase); assay: SPR, Fab captured, 37 C
T2 construct: whole entry named; also called deglycosylated V CD33
Method: as §1
The ability of anti-CD33 antibodies to recognize glycosylated CD33 was assayed. […] De-glycosylation status was confirmed by a shift on SDS-PAGE and MS.

[6] = biological target: T1, human CD33 extracellular domain; assay: BLI, IgG on sensor
Method: Briefly, ForteBio affinity measurements were performed by loading IgGs on-line onto AHC sensors. Sensors were equilibrated off-line in assay buffer for 30 min and then monitored on-line for 60 seconds for baseline establishment. Sensors with loaded IgGs were exposed to 100 nM antigen for 3 minutes, and afterwards were transferred to assay buffer for 3 min for off-rate measurement. All kinetics were analyzed using the 1:1 binding model.

B1: ADI-10163 Fab (Fab, V domains shown)
VH: QVQLQESGPGLVKPSQTLSLTCTVSGGSISSGGYYWSWIRQHPGKGLEWIGSIYYSGSTYYNPSLKSRVTISVDTSKNQFSLKLSSVTAADTAVYYCARDRLDYSYNYGMDVWGQGTTVTVSS
VL: DIQMTQSPSSLSASVGDRVTITCRASQSISSYLNWYQQKPGKAPKLLIYGASSLQSGVPSRFSGSGSGTDFTLTISSLQPEDFATYYCQQVYSAPFTFGGGTKVEIK
notes: Fab fragment; also called Ab17
- koff [1]: 0.0275 s⁻¹
- kon [1]: 515000 M⁻¹ s⁻¹
- koff [2]: 0.0275 s⁻¹
- kon [2]: 515000 M⁻¹ s⁻¹
- koff [3]: 0.0275 s⁻¹
- kon [3]: 515000 M⁻¹ s⁻¹
- koff [4]: 0.0275 s⁻¹
- kon [4]: 515000 M⁻¹ s⁻¹
- koff [5]: 0.256 s⁻¹
- kon [5]: 1.68e+06 M⁻¹ s⁻¹

B2: ADI-10163 IgG (antibody, V domains shown)
VH: QVQLQESGPGLVKPSQTLSLTCTVSGGSISSGGYYWSWIRQHPGKGLEWIGSIYYSGSTYYNPSLKSRVTISVDTSKNQFSLKLSSVTAADTAVYYCARDRLDYSYNYGMDVWGQGTTVTVSS
VL: DIQMTQSPSSLSASVGDRVTITCRASQSISSYLNWYQQKPGKAPKLLIYGASSLQSGVPSRFSGSGSGTDFTLTISSLQPEDFATYYCQQVYSAPFTFGGGTKVEIK
notes: IgG; also called Ab17
- koff [6]: 0.00453 s⁻¹
- kon [6]: 665000 M⁻¹ s⁻¹

B3: ADI-10173 Fab (Fab, V domains shown)
VH: QVQLVQSGAEVKKPGASVKVSCKASGYTFTSYYMHWVRQAPGQGLEWMGIINPSGGSTTYAQKFQGRVTMTRDTSTSTVYMELSSLRSEDTAVYYCAREAADGFVGERYFDLWGRGTLVTVSS
VL: not shown
notes: Fab fragment; also called Ab22
- koff [1]: 0.0125 s⁻¹
- kon [1]: 212000 M⁻¹ s⁻¹
- koff [2]: 0.0125 s⁻¹
- kon [2]: 212000 M⁻¹ s⁻¹
- koff [3]: 0.0125 s⁻¹
- kon [3]: 212000 M⁻¹ s⁻¹
- koff [4]: 0.0125 s⁻¹
- kon [4]: 212000 M⁻¹ s⁻¹
- koff [5]: 0.131 s⁻¹
- kon [5]: 674000 M⁻¹ s⁻¹

B4: ADI-10173 IgG (antibody, V domains shown)
VH: QVQLVQSGAEVKKPGASVKVSCKASGYTFTSYYMHWVRQAPGQGLEWMGIINPSGGSTTYAQKFQGRVTMTRDTSTSTVYMELSSLRSEDTAVYYCAREAADGFVGERYFDLWGRGTLVTVSS
VL: not shown
notes: IgG; also called Ab22
- koff [6]: 0.00314 s⁻¹
- kon [6]: 324000 M⁻¹ s⁻¹
